Measured values reported in patent publication US20190276540A1.

How the values were obtained:
[1] = molecular target: NKG2D ligands (NKG2DL) on tumor cell lines; assay: cell-based or functional assay
ULBP2-Fc = ULBP2-Fc (UniProt Q9BZM5); assay: cell-based or functional assay
Sequence of UniProt Q9BZM5 (Q9BZM5 26-217 limits assumed): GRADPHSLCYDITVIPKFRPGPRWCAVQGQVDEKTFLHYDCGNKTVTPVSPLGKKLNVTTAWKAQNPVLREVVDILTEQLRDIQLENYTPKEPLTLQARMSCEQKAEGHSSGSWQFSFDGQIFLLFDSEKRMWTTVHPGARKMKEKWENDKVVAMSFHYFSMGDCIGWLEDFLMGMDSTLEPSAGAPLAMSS

| tumor cell lysis, luciferase reporter assay, 24 h co-culture, E:T 1-to-1 [1] [%] | proliferation of CFSE-labelled TFP T cells on plate-bound antigen, three-day culture, flow cytometry (ULBP2-Fc) [ng/mL] | tumor cell lysis, luciferase reporter assay, 24 h co-culture, E:T 5-to-1 [1] [%] | Substance |
| --- | --- | --- | --- |
| 30 to 50 | 60 |  | dimeric NKG2D-CD3ε TFP (receptor) |
|  | 250 | 30 to 50 | monomeric NKG2D-CD3ε TFP (receptor) |
